# Data taken from patent US20260207798A1, “CYCLIC PEPTIDES AS PET IMAGING AGENTS OF GRANZYME B” (priority 2022, published 2026).
# Bridge positions count the residues as written; N and C are the ends. Square brackets hold non-standard residues; d marks the D form. NEtAla = CCN[C@@H](C)C(=O)O; NMeA = CN[C@@H](C)C(=O)O
# B1: Compound 44a (peptide)
# peptide: {CH2CO}-FNFEDQSPATWQPCG-NH2
# modifications: thioether N-14
# SMILES: C[C@@H]1NC(=O)[C@@H]2CCCN2C(=O)[C@H](CO)NC(=O)[C@H](CCC(N)=O)NC(=O)[C@H](CC(=O)O)NC(=O)[C@H](CCC(=O)O)NC(=O)[C@H](Cc2ccccc2)NC(=O)[C@H](CC(N)=O)NC(=O)[C@H](Cc2ccccc2)NC(=O)CSC[C@@H](C(=O)NCC(N)=O)NC(=O)[C@@H]2CCCN2C(=O)[C@H](CCC(N)=O)NC(=O)[C@H](Cc2c[nH]c3ccccc23)NC(=O)[C@H]([C@@H](C)O)NC1=O
# B2: Compound 57a (peptide)
# peptide: {CH2CO}-FNFEDQSPSTWQPCG-NH2
# modifications: thioether N-14
# SMILES: C[C@@H](O)[C@@H]1NC(=O)[C@H](CO)NC(=O)[C@@H]2CCCN2C(=O)[C@H](CO)NC(=O)[C@H](CCC(N)=O)NC(=O)[C@H](CC(=O)O)NC(=O)[C@H](CCC(=O)O)NC(=O)[C@H](Cc2ccccc2)NC(=O)[C@H](CC(N)=O)NC(=O)[C@H](Cc2ccccc2)NC(=O)CSC[C@@H](C(=O)NCC(N)=O)NC(=O)[C@@H]2CCCN2C(=O)[C@H](CCC(N)=O)NC(=O)[C@H](Cc2c[nH]c3ccccc23)NC1=O
# B3: Compound 56a (peptide)
# peptide: {CH2CO}-FNFEDQSPQTWQPCG-NH2
# modifications: thioether N-14
# SMILES: C[C@@H](O)[C@@H]1NC(=O)[C@H](CCC(N)=O)NC(=O)[C@@H]2CCCN2C(=O)[C@H](CO)NC(=O)[C@H](CCC(N)=O)NC(=O)[C@H](CC(=O)O)NC(=O)[C@H](CCC(=O)O)NC(=O)[C@H](Cc2ccccc2)NC(=O)[C@H](CC(N)=O)NC(=O)[C@H](Cc2ccccc2)NC(=O)CSC[C@@H](C(=O)NCC(N)=O)NC(=O)[C@@H]2CCCN2C(=O)[C@H](CCC(N)=O)NC(=O)[C@H](Cc2c[nH]c3ccccc23)NC1=O
# B4: Compound 60a (peptide)
# peptide: {CH2CO}-FNFEDQSPHTWQPCG-NH2
# modifications: thioether N-14
# SMILES: C[C@@H](O)[C@@H]1NC(=O)[C@H](Cc2c[nH]cn2)NC(=O)[C@@H]2CCCN2C(=O)[C@H](CO)NC(=O)[C@H](CCC(N)=O)NC(=O)[C@H](CC(=O)O)NC(=O)[C@H](CCC(=O)O)NC(=O)[C@H](Cc2ccccc2)NC(=O)[C@H](CC(N)=O)NC(=O)[C@H](Cc2ccccc2)NC(=O)CSC[C@@H](C(=O)NCC(N)=O)NC(=O)[C@@H]2CCCN2C(=O)[C@H](CCC(N)=O)NC(=O)[C@H](Cc2c[nH]c3ccccc23)NC1=O
# B5: Compound 65a (peptide)
# peptide: {CH2CO}-FNFEDQSPGTWQPCG-NH2
# modifications: thioether N-14
# SMILES: C[C@@H](O)[C@@H]1NC(=O)CNC(=O)[C@@H]2CCCN2C(=O)[C@H](CO)NC(=O)[C@H](CCC(N)=O)NC(=O)[C@H](CC(=O)O)NC(=O)[C@H](CCC(=O)O)NC(=O)[C@H](Cc2ccccc2)NC(=O)[C@H](CC(N)=O)NC(=O)[C@H](Cc2ccccc2)NC(=O)CSC[C@@H](C(=O)NCC(N)=O)NC(=O)[C@@H]2CCCN2C(=O)[C@H](CCC(N)=O)NC(=O)[C@H](Cc2c[nH]c3ccccc23)NC1=O
# B6: Compound 68a (peptide)
# peptide: {CH2CO}-FNFEDQSPDTWQ[NEtAla]CG-NH2
# modifications: thioether N-14
# SMILES: CCN1C(=O)[C@H](CCC(N)=O)NC(=O)[C@H](Cc2c[nH]c3ccccc23)NC(=O)[C@H]([C@@H](C)O)NC(=O)[C@H](CC(=O)O)NC(=O)[C@@H]2CCCN2C(=O)[C@H](CO)NC(=O)[C@H](CCC(N)=O)NC(=O)[C@H](CC(=O)O)NC(=O)[C@H](CCC(=O)O)NC(=O)[C@H](Cc2ccccc2)NC(=O)[C@H](CC(N)=O)NC(=O)[C@H](Cc2ccccc2)NC(=O)CSC[C@@H](C(=O)NCC(N)=O)NC(=O)[C@@H]1C
# B7: Compound 67a (peptide)
# peptide: {CH2CO}-FNFEDQSPDTWQ[NMeA]CG-NH2
# modifications: thioether N-14
# SMILES: C[C@@H](O)[C@@H]1NC(=O)[C@H](CC(=O)O)NC(=O)[C@@H]2CCCN2C(=O)[C@H](CO)NC(=O)[C@H](CCC(N)=O)NC(=O)[C@H](CC(=O)O)NC(=O)[C@H](CCC(=O)O)NC(=O)[C@H](Cc2ccccc2)NC(=O)[C@H](CC(N)=O)NC(=O)[C@H](Cc2ccccc2)NC(=O)CSC[C@@H](C(=O)NCC(N)=O)NC(=O)[C@H](C)N(C)C(=O)[C@H](CCC(N)=O)NC(=O)[C@H](Cc2c[nH]c3ccccc23)NC1=O
# B8: Compound 58a (peptide)
# peptide: {CH2CO}-FNFEDQSPKTWQPCG-NH2
# modifications: thioether N-14
# SMILES: C[C@@H](O)[C@@H]1NC(=O)[C@H](CCCCN)NC(=O)[C@@H]2CCCN2C(=O)[C@H](CO)NC(=O)[C@H](CCC(N)=O)NC(=O)[C@H](CC(=O)O)NC(=O)[C@H](CCC(=O)O)NC(=O)[C@H](Cc2ccccc2)NC(=O)[C@H](CC(N)=O)NC(=O)[C@H](Cc2ccccc2)NC(=O)CSC[C@@H](C(=O)NCC(N)=O)NC(=O)[C@@H]2CCCN2C(=O)[C@H](CCC(N)=O)NC(=O)[C@H](Cc2c[nH]c3ccccc23)NC1=O
# B9: Compound 46a (peptide)
# peptide: {CH2CO}-FNFEDQSPRTWQPCG-NH2
# modifications: thioether N-14
# SMILES: C[C@@H](O)[C@@H]1NC(=O)[C@H](CCCNC(=N)N)NC(=O)[C@@H]2CCCN2C(=O)[C@H](CO)NC(=O)[C@H](CCC(N)=O)NC(=O)[C@H](CC(=O)O)NC(=O)[C@H](CCC(=O)O)NC(=O)[C@H](Cc2ccccc2)NC(=O)[C@H](CC(N)=O)NC(=O)[C@H](Cc2ccccc2)NC(=O)CSC[C@@H](C(=O)NCC(N)=O)NC(=O)[C@@H]2CCCN2C(=O)[C@H](CCC(N)=O)NC(=O)[C@H](Cc2c[nH]c3ccccc23)NC1=O
# B10: Compound 63a (peptide)
# peptide: {CH2CO}-FNFEDQGPDTWQPCG-NH2
# modifications: thioether N-14
# SMILES: C[C@@H](O)[C@@H]1NC(=O)[C@H](CC(=O)O)NC(=O)[C@@H]2CCCN2C(=O)CNC(=O)[C@H](CCC(N)=O)NC(=O)[C@H](CC(=O)O)NC(=O)[C@H](CCC(=O)O)NC(=O)[C@H](Cc2ccccc2)NC(=O)[C@H](CC(N)=O)NC(=O)[C@H](Cc2ccccc2)NC(=O)CSC[C@@H](C(=O)NCC(N)=O)NC(=O)[C@@H]2CCCN2C(=O)[C@H](CCC(N)=O)NC(=O)[C@H](Cc2c[nH]c3ccccc23)NC1=O
# B11: Compound 59a (peptide)
# peptide: {CH2CO}-FNFEDQSPYTWQPCG-NH2
# modifications: thioether N-14
# SMILES: C[C@@H](O)[C@@H]1NC(=O)[C@H](Cc2ccc(O)cc2)NC(=O)[C@@H]2CCCN2C(=O)[C@H](CO)NC(=O)[C@H](CCC(N)=O)NC(=O)[C@H](CC(=O)O)NC(=O)[C@H](CCC(=O)O)NC(=O)[C@H](Cc2ccccc2)NC(=O)[C@H](CC(N)=O)NC(=O)[C@H](Cc2ccccc2)NC(=O)CSC[C@@H](C(=O)NCC(N)=O)NC(=O)[C@@H]2CCCN2C(=O)[C@H](CCC(N)=O)NC(=O)[C@H](Cc2c[nH]c3ccccc23)NC1=O
# Target: T1, human Granzyme B (human, UniProt P10144 21-247)
# T1 construct: Captured on a Series S Streptavidin chip for SPR; also called hGranzyme B; GzmB
# Assay: SPR, Biacore 8k+, hGranzyme B captured on SA chip, single cycle kinetics, 1:1 model
# Procedure: The kinetics of test peptide binding to human Granzyme B (hGranzyme B) was determined by SPR. All experiments were performed at 25° C. using the Biacore 8k+ instrument (Cytiva, Marlborough, MA). The Biacore 8k+ Insight Evaluation Software Version 3.0 was used to fit the data with a 1:1 binding model to determine the association rate constant kₐ (M⁻¹s⁻¹, where “M” ~equals molar and “s” ~equals seconds) and the dissociation rate constant kd (s⁻¹). These rate constants were used to calculate the equilibrium dissociation constant. KD (M)=kd/kₐ.
# To measure the binding kinetics of peptides of interest, surfaces were prepared by a capture method to a Series S Streptavidin (SA) chip using a 1×HBS-EP+ running buffer (Cytiva). hGranzyme B was diluted to 10 μg/mL in IX HBS-EP+ and flowed over spot 2 of each flow cell on the chip at a flow rate of 10 ul/min for 20 s to achieve a level of capture of ~1100 RU. An unmodified spot 1 of each flow cell was used as a matrix binding control or reference surface. Binding kinetics were measured using single cycle kinetics at 25° C. by injecting 5 concentrations with 3-fold serial dilutions of test peptides from 0.01 μM to 1 μM. Compound dilutions were performed manually in a running buffer containing 1×HBS-EP+(Cytiva), and a final concentration of 2% DMSO. The interaction analyses over hGranzyme B, were performed using a 120 s association time and a 900 s dissociation time. All experiments were conducted at a flow rate of 50 μL/min with a data collection rate of 10 Hz.
# Peptide dilution series included 2 zero concentration points (no compound) which were averaged and subtracted from the peptide concentration injection as DMSO control responses. Binding data acquired from the reference surface (matrix binding control) were subtracted from the binding data for hGranzyme B surface on the chip to determine specific binding. Next, the association phase data were solvent corrected to account for any signal fluctuation throughout the experiment due to subtle DMSO concentration differences. Corrected response data were analyzed using the Biacore 8k+ Evaluation Software Version 3.0 according to the manufacturer. SPR data for representative compounds of the disclosure are found in Table 8.
# T1 sequence (P10144 21-247 limits assumed): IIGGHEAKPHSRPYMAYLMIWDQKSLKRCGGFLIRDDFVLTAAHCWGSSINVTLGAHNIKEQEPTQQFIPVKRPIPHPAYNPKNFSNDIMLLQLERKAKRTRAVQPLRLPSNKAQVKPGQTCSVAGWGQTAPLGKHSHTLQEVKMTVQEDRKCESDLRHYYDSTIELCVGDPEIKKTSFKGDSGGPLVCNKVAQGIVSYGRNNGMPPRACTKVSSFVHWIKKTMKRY
row,Binder,Kd [nM]
1,B1,3.5
2,B2,5.7
3,B3,5.5
4,B4,6.1
5,B5,11
6,B6,15.6
7,B7,12.4
8,B8,5.9
9,B9,3.8
10,B10,7.1
11,B11,6
